Laboratory results as given in US20260201030A1, “ANTIBODY, ANTIBODY-DRUG CONJUGATE THEREOF AND USE THEREOF” (EVOPOINT BIOSCIENCES CO., LTD., priority 2021, published 2026).

Legend:
Assay type in all cases: binding
human Claudin18.2 [1] = target: T1, human Claudin18.2 (Homo sapiens, UniProt P56856); assay: Cell-based ELISA affinity of humanized antibodies on HEK293T-Claudin18.2 (human) cells; settings: HEK293T-Claudin18.2 cells
T1 construct: expressed in transfected cells
Procedure: The affinity of the anti-human Claudin18.2 murine monoclonal antibodies was evaluated by cell-based ELISA. The experimental procedures were as follows: The day before the experiment, HEK293T-Claudin18.2 (human) cells were plated in a 96-well plate at 5×10^4 cells/well. On the day of the experiment, the supernatant was removed, the cells in each well were washed once with 300 μL of PBS, and 100 μL of 4% paraformaldehyde was added to each well for fixation at room temperature for 20 min. Paraformaldehyde was then removed, and the cells in each well were washed twice with 300 μL of PBS. 100 μL of 2% BSA (in PBS) was added to each well, and the mixture was blocked at 37° C. for 2 h. After removing the blocking solution, each antibody subjected to gradient dilution (diluted with 2% BSA (in PBS), starting at […], in a 3-fold gradient, for a total of 11 concentration points) was added to the plate at 100 μL/well, and the mixture was incubated at 37° C. for 2 h. The supernatant was removed, and the cells in each well were washed three times with 300 μL of PBST. 100 μL of an anti-mouse IgG HRP secondary antibody (Jackson, cat #115-035-003) in 2% BSA was added to each well, and the mixture was incubated at 37° C. for 1 h. The secondary antibody was then removed, and the cells in each well were washed five times with 300 μL of PBST, followed by the addition of 100 μL of a TMB substrate (Huzhou InnoReagents Co., Ltd.) per well for color development for 5-20 min. The reaction was stopped by adding 50 μL of 2 N HCl to each well, and OD450 nm values were read on a microplate reader (manufacturer: MD, model: SpectraMax). The values obtained were plotted by GraphPad Prism to calculate the EC50 value.
The affinity of the anti-human Claudin18.2 humanized monoclonal antibodies was determined by cell-based ELISA. The cell-based ELISA was conducted as described in Example I-3.

human Claudin18.2 [2] = target: T1, human Claudin18.2; assay: Cell-based ELISA affinity on NUGC4-Claudin18.2 (human) cells
human Claudin18.2 [3] = target: T1, human Claudin18.2; assay: Cell-based FACS affinity on NUGC4-Claudin18.2 (human) cells
Procedure: (§1) The affinity of the anti-human Claudin18.2 humanized antibodies was detected by flow cytometry. The experimental procedures were as follows: The adherent cultured HEK293T-Claudin18.2 (human), NUGC4-Claudin18.2 (human) and NUGC4 cells were digested, collected by centrifugation, and washed three times with pre-cooled PBS. The cells were resuspended in 1% BSA (in PBS) and added to a 96-well pointed bottom plate at 3×10^5 cells/well, with a volume of 50 μL per well. Each test antibody was diluted with 1% BSA (in PBS) (starting at 100 μg/mL, diluted in a 3-fold gradient, for 10 concentration points). The test antibody subjected to gradient dilution was added to the cells at 50 μL/well, and the mixture was well mixed and incubated at 4° C. for 1 h. The cells were collected by centrifugation, washed three times with pre-cooled PBS, and resuspended in 50 μL of 1% BSA (in PBS). 1 μL of a fluorescent secondary antibody (Biolegend-410712) was added to each well, and the mixture was well mixed and incubated at 4° C. for 0.5 h. The cells were collected by centrifugation, washed three times with pre-cooled PBS, resuspended in 200 μL of PBS, and assayed on a machine.

human Claudin18.2 [4] = target: T1, human Claudin18.2; assay: Cell-based FACS affinity on NUGC4 cells
Procedure: as §1

mouse Claudin18.2 = target: T2, mouse Claudin18.2 (Mus musculus, UniProt P56857); assay: FACS species affinity on HEK293T-Claudin18.2 (mouse) cells; settings: cell-based FACS
T2 construct: expressed in transfected cells
Procedure: (§2) The affinity of the anti-human Claudin18.2 humanized monoclonal antibodies for Claudin18.2 of different species was determined by flow cytometry (FACS). The experimental procedures were as follows: HEK293T-Claudin18.2 (cynomolgus monkey) cells, HEK293T-Claudin18.2 (mouse) cells and HEK293T-Claudin18.2 (rat) cells were digested, collected by centrifugation, washed three times with pre-cooled PBS, resuspended in 1% BSA (in PBS), and added to a 96-well pointed bottom plate at 3×10^5 cells/well. Each antibody subjected to gradient dilution was added, and the mixture was incubated at 4° C. for 1 h. The cells were washed three times with pre-cooled PBS, and then 1 μL of a fluorescent secondary antibody (APC: Biolegend-410712) was added to each well. The mixture was incubated at 4° C. for 0.5 h, and the cells were washed three times with pre-cooled PBS, then resuspended, and assayed on a flow cytometer.

rat Claudin18.2 = target: T3, rat Claudin18.2 (Rattus norvegicus, UniProt Q5I0E5); assay: FACS species affinity on HEK293T-Claudin18.2 (rat) cells; settings: cell-based FACS
T3 construct: expressed in transfected cells
Procedure: as §2

T2 sequence (P56857 1-264 isoform P56857-3): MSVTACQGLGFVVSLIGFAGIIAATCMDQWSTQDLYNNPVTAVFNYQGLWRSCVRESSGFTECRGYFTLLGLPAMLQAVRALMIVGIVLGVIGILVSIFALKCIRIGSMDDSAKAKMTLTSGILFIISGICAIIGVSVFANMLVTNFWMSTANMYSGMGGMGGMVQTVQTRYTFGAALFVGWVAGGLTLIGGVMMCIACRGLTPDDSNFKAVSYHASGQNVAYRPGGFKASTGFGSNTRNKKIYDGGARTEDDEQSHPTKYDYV
T3 sequence (Q5I0E5 1-261 isoform Q5I0E5-2): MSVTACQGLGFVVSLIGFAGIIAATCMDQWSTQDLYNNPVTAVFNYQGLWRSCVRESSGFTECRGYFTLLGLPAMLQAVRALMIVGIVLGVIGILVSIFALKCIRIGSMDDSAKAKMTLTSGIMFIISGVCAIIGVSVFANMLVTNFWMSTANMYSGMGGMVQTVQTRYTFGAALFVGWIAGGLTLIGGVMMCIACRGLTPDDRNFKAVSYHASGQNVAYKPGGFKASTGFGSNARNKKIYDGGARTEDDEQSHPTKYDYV

Molecule | Affinity detected by cell-based ELISA (EC50, ng/mL) HEK293T-Claudin18.2 (human Claudin18.2 [1]) | NUGC4-Claudin18.2 EC50 (human Claudin18.2 [2]) [µg/mL] | NUGC4-Claudin18.2 Maximum signal value (human Claudin18.2 [2]; OD450) | NUCG4- Claudin18.2 EC50 (human Claudin18.2 [3]) [µg/mL] | NUCG4- Claudin18.2 Maximum signal value (human Claudin18.2 [3]) | binding to NUGC4 (in words) (human Claudin18.2 [4]) | HEK293T-Claudin18.2 (mouse) EC50 (mouse Claudin18.2) [µg/mL] | HEK293T-Claudin18.2 (rat) EC50 (rat Claudin18.2) [µg/mL]
25C7A5-HZ1: humanized anti-Claudin18.2 antibody, VH SEQ ID NO: 1, VL SEQ ID NO: 2, human IgG1/Kappa constant regions (antibody, V domains shown, human IgG1/kappa constant regions) VH: QVQLVQSGAEVKKPGSSVKVSCKASGYTFTNYWLHWVRQAPGQGLEWMGMMHPISGSSNYAQKFQGRATLTVDKSTSTAYMELSSLRSEDTAVYYCARGLLSAMDYWGQGTLVTVSS VL: EIVLTQSPATLSLSPGERATLSCKASENVKTYVSWYQQKPGQSPRLLIYEASNRYTGVPARFSGSGSATDFTLTISSLEPEDFAVYFCGQTYSFPPTFGQGTKVEIK | 11.15 ng/mL | 0.1076 | 1.284 | 3.192 | 871132 | significant binding | 0.9407 | 1.672
25C7A5-HZ2: humanized anti-Claudin18.2 antibody, VH SEQ ID NO: 3, VL SEQ ID NO: 2, human IgG1/Kappa constant regions (antibody, V domains shown, human IgG1/kappa constant regions) VH: QVQLVESGAEVKKPGSSVKVSCKASGYTFTNYWLHWVRQAPGQGLEWMGMMHPISGSSNYAQKFQGRATLTVDKSTSTAYMELSSLRSEDTAVYYCARGLLSAMDYWGQGTLVTVSS VL: EIVLTQSPATLSLSPGERATLSCKASENVKTYVSWYQQKPGQSPRLLIYEASNRYTGVPARFSGSGSATDFTLTISSLEPEDFAVYFCGQTYSFPPTFGQGTKVEIK | 11.17 ± 2.19(N = 2) ng/mL |  |  |  |  |  |  | 
